Test results as given in the supplement of paper PMC12338614.

B1: library; numbered along this chain (parent)
chain: MEVVDPQQLGMFTEGELMSVGMDTFIHRIDSTEVIYQPRRKRAKLIGKYLMGDLLGEGSYGKVKEVLDSETLCRRAVKILKKKKLRRIPNGEANVKKEIQLLRRLRHKNVIQLVDVLYNEEKQKMYMVMEYCVCGMQEMLDSVPEKRFPVCQAHGYFCQLIDGLEYLHSQGIVHKDIKPGNLLLTTGGTLKISDLGVAEALHPFAADDTCRTSQGSPAFQPPEIANGLDTFSGFKVDIWSAGVTLYNITTGLYPFEGDNIYKLFENIGKGSYAIPGDCGPPLSDLLKGMLEYEPAKRFSIRQIRQHSWFRKKHPPAEAPVPIPPSPDTKDRWRSMTVVPYLEDLHGADEDEDLFDIEDDIIYTQDFTVPGQVPEEEASHNGQRRGLPKAVCMNGTEAAQLSTKSRAEGRAPNPARKACSASSKIRRLSACKQQ

Variants of: B1
Assay: STK11 functional score (HeLa growth suppression), rescaled enrichment; synonymous median = 1, nonsense median = 0 (normalised score)
Settings: with HeLa; variant type: missense
In short: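 The functional score takes the post/pre-selection log ratio, corrects it to wild type, rescales it to synonymous and nonsense medians, and merges it over codons and replicate transfections, with error from bootstrapping. Counts came from tiled gDNA amplicons sequenced on NextSeq (~2 million reads per tile). The libraries were POPCode codon-randomised, codon-optimised STK11 integrated by Bxb1 at an AAVS1 landing pad in HeLa, three regions with three transfections each.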

STK11 functional score of substitutions, site by site:
S169: W 1.25, R 0.882, G 1.29, P 0.391, T 1.22, I 0.231, H 1.43, Y 1.54, A 1.09, V 0.428, L 0.7
Y166: T 1.11, G 1.23, I 1.21, M 0.651, K 1.56, W 0.846, A 1.47, D -0.0245, V 1.14, S 0.964, P 0.994, F 1.05, L 0.75, C 0.804
G180: F 0.804, H 1.65, N 1.39, M 0.93, E 1.09, V 0.816, T 1.53, Q 1.64, A 1.34, C 1.09, P 0.814, S 1.14, I 1.41, R 0.948, L 1.02, W 1.44
K175: S 0.884, Q 1.19, L 1.11, I 0.589, N 0.914, A 0.904, R 1.47, V 0.466, T 1.07, F 0.988, W 0.478, P -0.179, G 0.847, Y 0.592
I177: L 0.956, R -0.0129, P 0.166, G -0.017, H -0.12, M 0.6, F 0.54, A 0.128, D 0.0262, Y 0.215, V 1.06, S -0.0448, W -0.249
Q170: G 1.37, K 0.664, D -0.0762, M 1.54, A 0.916, W 1.17, C 1.51, S 0.916, V 1.26, P 0.0405, L 0.967, H 0.738, F 0.834, R 1.16, T 0.156, E 0.234
H174: F 0.138, T 1.63, W 1.02, C 0.891, L 0.234, Y 1.11, K 0.153, I 0.662, N 0.317, A 0.322, V 0.69, G 0.326, P 0.0698, S 0.695
Q159: S 0.691, W 0.972, Y 1.03, V 0.324
N181: T -0.449, D -0.134, P -0.0573, M -0.246, F -0.0897, Y -0.0251, V -0.181, R -0.0333, H 0.134, A 0.0629, K -0.18, G 0.0242, S -0.0295, E -0.231, W -0.0742, C -0.0246, L -0.122, Q 0.708, I -0.248
D176: S -0.0857, P 0.0199, F -0.058, G -0.169, K -0.194, W -0.0742, L -0.164, E 0.211, V 0.0775, M 0.0191, A -0.0851, C -0.0937, Y -0.343, I -0.156, R -0.0226, H -0.154, T -0.105, N -0.273
I161: C 1.03, F -0.101, M 1.31, L 0.912, E -0.456, G 0.264, H -0.2, N 0.158, T 1.31, S -0.0934, R -0.0321, P 0.918, D -0.303, W -0.296, V 0.514, Y 0.129
G171: L 1.43, S 1.41, W 1.53, I 1.46, C 0.479, N 1.69, R 1.24, A 1.18, V 1.25
L182: C 1.17, A 0.345, H -0.198, N 1.01, S 0.561, R 0.129, F 1.03, V 0.907, D 0.257, T 1.12, W 0.0906, Y -0.00243, I 1.56, G 0.327, E -0.122, P -0.0858
V173: P 0.128, W 0.343, Y 1.04, C 0.883, A 0.314, G 1.15, R 0.37, L 0.137, S 1.23, H 0.45, F 0.953, I 1.52, Q 1.46
L164: V 0.774, R -0.302, N 0.0402, H 0.0804, F -0.208, T 0.864, S 0.135, G -0.142, I 1.16, P -0.0524, C 1.21, W 0.051
L160: P -0.129, H 0.212, A 1.07, R -0.13, W 0.0949, G -0.0371, V 1.26, F 0.36, S 0.508, I 1.17, E 0.305, Q 0.000621
L183: D 0.119, G 0.551, A 0.587, M -0.0817, H 1.43, E 0.3, F 0.885
D162: C 1.28, A 0.819, L 1.04, E 0.171, V 1.17, R 1.55, I 1.05, S 1.26, H 0.6, W 1.6, T 1.4, M 1.62, F 1.15
G163: H -0.383, F -0.122, A 1.05, W 0.91, P -0.013, S 0.402, L 0.386, R 0.0418, Y -0.0827, T 0.008, E -0.0159, C 0.245, V 0.0343
L167: Y 0.387, W -0.183, K 0.0279, D -0.162, N 0.605, P 0.104, F 1.05, R -0.0722, A 0.629, C 1.13, V 1.15, S 0.241, G 0.121, E -0.113, I 1.44, H -0.00514
E165: R 1.18, T 0.129, G 0.569, Q 0.995, V 0.465, W 0.516, M 0.0982, L 0.448, Y 1.24, K 0.973, S 1.39
I172: F 0.904, W 0.519, L 0.71, M 0.35, G 0.806, S 0.549, N 0.174, V 1.21, A 1.02, P -0.291, R 0.401
H168: R 0.838, Y 0.357, V 0.473, S 0.83, A 1.25, E 1.3, L 0.263, P 0.0717, F 0.851, I 0.159, G 0.533, M 0.519, Q 0.947, N 0.275, W 0.545, D 0.0708, C 0.168
P179: V 0.541, F 0.0795, A 0.764, G 0.216, T 0.709, L 0.376, H -0.0435, M 0.544, S 0.562, W 0.088, D -0.213, R -0.0831, E 0.0456, Y 0.059, I 0.823
K178: G 0.325, T 0.951, L 0.63, M 0.202, E -0.00538, R 0.681, V 0.434, S 0.586, F 0.35, A 0.756, I 0.388, C 0.883, W 0.413, P -0.0986
